From patent US20170267738A1 (IMMATICS BIOTECHNOLOGIES, published 2017)

Molecular target: MHC/MAG-003 complex on target cells (human)
Assay: cell-based or functional assay

Binder | EC50 (target peptide titration, IFN-γ release) [nM]
TCR R20P1H7 (TCR, V domains shown) V domain 1: EDQVTQSPEALRLQEGESSSLNCSYTVSGLRGLFWYRQDPGKGPEFLFTLYSAGEEKEKERLKATLTKKESFLHITAPKPEDSATYLCAVQGENSGYSTLTFGKGTMLLVSP V domain 2: EAQVTQNPRYLITVTGKKLTVTCSQNMNHEYMSWYRQDPGLGLRQIYYSMNVEVTDKGDVPEGYKVSRKEKRNFPLILESPSPNQTSLYFCASSLGPGLAAYNEQFFGPGTRLTVLE | ~10
TCR R10P2G12 (TCR, V domains shown) V domain 1: AQKVTQAQTEISVVEKEDVTLDCVYETRDTTYYLFWYKQPPSGELVFLIRRNSFDEQNEISGRYSWNFQKSTSSFNFTITASQVVDSAVYFCALSEGNSGNTPLVFGKGTRLSVIA V domain 2: DVKVTQSSRYLVKRTGEKVFLECVQDMDHENMFWYRQDPGLGLRLIYFSYDVKMKEKGDIPEGYSVSREKKERFSLILESASTNQTSMYLCASSLSSGSHQETQYFGPGTRLLVLE | ~10
